# The supplement of paper PMC9112550, “Optimization of the antimicrobial peptide Bac7 by deep mutational scanning” (BMC Biology, 2022)
# System: Escherichia coli TOP10
# Assay: shrunken log2 fold change of peptide-encoding DNA abundance (4.5 h post-induction vs induction); higher = less antimicrobial activity (less host growth inhibition)
# Conditions: time post-induction: 4.5 h; library: site-saturation at positions 5, 18, 19, 20
# 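Further: peptides expressed intracellularly from a pBAD plasmid library in pooled LB shake-flask culture, induced with 0.3% L-arabinose, DNA abundance read by NGS, three biological replicates, DESeq2 with apeglm shrinkage.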
row,Sequence,shrunken log2 fold change
1,RRIRDRPPRLPRPRPRPQWNPRP,-0.37
2,RRIRERPPRLPRPRPRPAYVPRP,-0.859
3,RRIRQRPPRLPRPRPRPTGGPRP,0.0146
4,RRIRTRPPRLPRPRPRPEEMPRP,0.133
5,RRIRRRPPRLPRPRPRPEVCPRP,0.793
6,RRIRLRPPRLPRPRPRPYRPPRP,-0.221
7,RRIRIRPPRLPRPRPRPINDPRP,-0.657
8,RRIRGRPPRLPRPRPRPFGTPRP,0.196
9,RRIRCRPPRLPRPRPRPRKPPRP,0.218
10,RRIRPRPPRLPRPRPRPAWIPRP,0.0812
11,RRIRCRPPRLPRPRPRPQKRPRP,0.0237
12,RRIRIRPPRLPRPRPRPFMEPRP,-0.354
13,RRIRARPPRLPRPRPRPWWSPRP,0.271
14,RRIRFRPPRLPRPRPRPHPLPRP,-0.16
15,RRIRDRPPRLPRPRPRPHPWPRP,0.114
16,RRIRARPPRLPRPRPRPQDWPRP,0.556
17,RRIRLRPPRLPRPRPRPFHHPRP,-0.147
18,RRIRRRPPRLPRPRPRPEPTPRP,0.543
19,RRIRIRPPRLPRPRPRPMFEPRP,-0.0768
20,RRIRKRPPRLPRPRPRPVNFPRP,-0.0174
21,RRIRYRPPRLPRPRPRPGGNPRP,-0.0562
22,RRIRPRPPRLPRPRPRPFMYPRP,-0.0369
23,RRIRYRPPRLPRPRPRPIDNPRP,-0.542
24,RRIRERPPRLPRPRPRPGDSPRP,-1.02
25,RRIRSRPPRLPRPRPRPMMEPRP,0.0765

row,Sequence,shrunken log2 fold change
1,RRIRQRPPRLPRPRPRPVMHPRP,-0.679
2,RRIRFRPPRLPRPRPRPDLEPRP,-0.0811
3,RRIRGRPPRLPRPRPRPDFCPRP,2.03
4,RRIRHRPPRLPRPRPRPKTTPRP,-0.052
5,RRIRPRPPRLPRPRPRPCWHPRP,-0.261
6,RRIRKRPPRLPRPRPRPTWVPRP,-0.105
7,RRIRHRPPRLPRPRPRPENPPRP,-0.277
8,RRIRHRPPRLPRPRPRPTKLPRP,-0.255
9,RRIRPRPPRLPRPRPRPDVVPRP,-0.00973
10,RRIRDRPPRLPRPRPRPQVIPRP,-0.0205
11,RRIRMRPPRLPRPRPRPCCVPRP,0.166
12,RRIRIRPPRLPRPRPRPYAPPRP,-0.242
13,RRIRARPPRLPRPRPRPDPYPRP,-0.169
14,RRIRFRPPRLPRPRPRPHYNPRP,-0.786
15,RRIRWRPPRLPRPRPRPPVEPRP,0.392
16,RRIRFRPPRLPRPRPRPIEKPRP,-0.0389
17,RRIRFRPPRLPRPRPRPAAFPRP,-0.0126
18,RRIRYRPPRLPRPRPRPGGYPRP,-0.00146
19,RRIRARPPRLPRPRPRPMKEPRP,-0.101
20,RRIRCRPPRLPRPRPRPQSWPRP,0.69
21,RRIRHRPPRLPRPRPRPHYKPRP,-0.973
22,RRIRNRPPRLPRPRPRPDSMPRP,-0.0386
23,RRIRGRPPRLPRPRPRPIWIPRP,0.0517
24,RRIRTRPPRLPRPRPRPPFYPRP,-0.0308
25,RRIRERPPRLPRPRPRPLNLPRP,-0.312

row,Sequence,shrunken log2 fold change
1,RRIRQRPPRLPRPRPRPWCTPRP,-0.244
2,RRIRRRPPRLPRPRPRPHRGPRP,-0.0548
3,RRIRWRPPRLPRPRPRPWSCPRP,-0.169
4,RRIRRRPPRLPRPRPRPFMFPRP,0.234
5,RRIRLRPPRLPRPRPRPMHLPRP,-0.0248
6,RRIRKRPPRLPRPRPRPMPLPRP,-0.00591
7,RRIRQRPPRLPRPRPRPKQEPRP,-0.0419
8,RRIRARPPRLPRPRPRPLWWPRP,0.648
9,RRIRTRPPRLPRPRPRPGKVPRP,0.145
10,RRIRWRPPRLPRPRPRPDMHPRP,0.199
11,RRIRVRPPRLPRPRPRPDEGPRP,0.0672
12,RRIRSRPPRLPRPRPRPVSHPRP,-0.188
13,RRIRYRPPRLPRPRPRPWGVPRP,-0.242
14,RRIRTRPPRLPRPRPRPHLVPRP,0.0214
15,RRIRDRPPRLPRPRPRPEIYPRP,0.0907
16,RRIRRRPPRLPRPRPRPALNPRP,0.248
17,RRIRARPPRLPRPRPRPAEHPRP,0.193
18,RRIRPRPPRLPRPRPRPKQVPRP,-0.0541
19,RRIRNRPPRLPRPRPRPLPDPRP,-0.0552
20,RRIRDRPPRLPRPRPRPLYNPRP,-0.321
21,RRIRSRPPRLPRPRPRPMKEPRP,-0.338
22,RRIRPRPPRLPRPRPRPCHIPRP,-0.821
23,RRIRCRPPRLPRPRPRPPGQPRP,0.494
24,RRIRHRPPRLPRPRPRPTSDPRP,-0.302
25,RRIRVRPPRLPRPRPRPTIYPRP,-0.498

row,Sequence,shrunken log2 fold change
1,RRIRNRPPRLPRPRPRPPTWPRP,0.434
2,RRIRVRPPRLPRPRPRPKKQPRP,0.216
3,RRIRTRPPRLPRPRPRPESKPRP,0.214
4,RRIRTRPPRLPRPRPRPDMLPRP,0.035
5,RRIRTRPPRLPRPRPRPDWVPRP,0.0189
6,RRIRRRPPRLPRPRPRPSLNPRP,0.00555
7,RRIRVRPPRLPRPRPRPVPWPRP,0.0916
8,RRIRWRPPRLPRPRPRPGVCPRP,0.681
9,RRIRNRPPRLPRPRPRPVSCPRP,-0.129
10,RRIRRRPPRLPRPRPRPETMPRP,-0.0309
11,RRIRRRPPRLPRPRPRPRMAPRP,0.294
12,RRIRYRPPRLPRPRPRPMIAPRP,-0.188
13,RRIRRRPPRLPRPRPRPVEDPRP,0.355
14,RRIRERPPRLPRPRPRPFTCPRP,-0.00783
15,RRIRMRPPRLPRPRPRPHYQPRP,-0.228
16,RRIRWRPPRLPRPRPRPPRFPRP,0.326
17,RRIRQRPPRLPRPRPRPTCDPRP,-0.116
18,RRIRGRPPRLPRPRPRPYFVPRP,0.0122
19,RRIRFRPPRLPRPRPRPYTQPRP,-0.152
20,RRIRFRPPRLPRPRPRPTEFPRP,-0.217
21,RRIRVRPPRLPRPRPRPQIHPRP,-1.01
22,RRIRRRPPRLPRPRPRPKHEPRP,0.0619
23,RRIRNRPPRLPRPRPRPVYMPRP,-0.0311
24,RRIRNRPPRLPRPRPRPWPTPRP,0.216
25,RRIRFRPPRLPRPRPRPWIIPRP,-0.00565

row,Sequence,shrunken log2 fold change
1,RRIRVRPPRLPRPRPRPWESPRP,0.0528
2,RRIRDRPPRLPRPRPRPHKCPRP,-0.372
3,RRIRTRPPRLPRPRPRPWSYPRP,-1.86
4,RRIRWRPPRLPRPRPRPIGPPRP,-0.0272
5,RRIRQRPPRLPRPRPRPGAWPRP,0.256
6,RRIRARPPRLPRPRPRPYYVPRP,-0.169
7,RRIRQRPPRLPRPRPRPDEIPRP,-0.00251
8,RRIRIRPPRLPRPRPRPVWPPRP,0.0939
9,RRIRFRPPRLPRPRPRPMPSPRP,0.0917
10,RRIRVRPPRLPRPRPRPYRSPRP,-1.55
11,RRIRKRPPRLPRPRPRPEEFPRP,0.227
12,RRIRPRPPRLPRPRPRPKFCPRP,0.189
13,RRIRTRPPRLPRPRPRPSVTPRP,-0.0217
14,RRIRVRPPRLPRPRPRPRKHPRP,0.112
15,RRIRERPPRLPRPRPRPMIAPRP,0.121
16,RRIRSRPPRLPRPRPRPLRLPRP,0.54
17,RRIRWRPPRLPRPRPRPKQPPRP,0.334
18,RRIRPRPPRLPRPRPRPWKEPRP,-0.164
19,RRIRPRPPRLPRPRPRPGCTPRP,0.104
20,RRIRLRPPRLPRPRPRPFKWPRP,0.00989
21,RRIRSRPPRLPRPRPRPARIPRP,0.0694
22,RRIRMRPPRLPRPRPRPHENPRP,0.218
23,RRIRKRPPRLPRPRPRPHHFPRP,-0.0062
24,RRIRHRPPRLPRPRPRPKWLPRP,0.333
25,RRIRWRPPRLPRPRPRPFFVPRP,0.173
